Experimental data published in US20040248790A1, “Novel secretory proteins and dna thereof” (priority 2001, published 2004).
Where no end group is shown, it is not given here.

Assays:
Assay type in all cases: cell-based
mock CHO cells [1] = assay: Intracellular calcium ion change (FLIPR) in mock CHO cells (control); conditions: mock CHO cells as the control
mock CHO cells [2] = assay: cAMP production-suppressing activity in mock CHO cells (control); conditions: mock CHO cells as the control; forskolin
Description: (§1) AQ27-expressing CHO cells (FIG. 24) established by a method known per se and mock CHO cells (FIG. 25) serving as a control were plated on a 96-well plate (Becton Dickinson Company, Ltd.) at a density of 4×10^4 cells/well and cultured overnight. The assay buffer used was a buffer prepared by adding 0.1% bovine serum albumin and 0.2 mM 3-isobutyl-1-methylxanthine to a Hanks' balanced salt solution. The cells were washed twice with the assay buffer and pre-incubated at 37° C. for 30 minutes. The cells were washed again twice with the assay buffer, and a sample prepared in the assay buffer was added thereto, and the cells were incubated at 37° C. for 30 minutes. To evaluate the cAMP production-suppressing activity, a sample composed exclusively of 2 μM forskolin (FSK, Wako Pure Chemical Industries, Ltd.) promoting production of cAMP and a sample containing 2 μM FSK and 10^−7 to 10^−5 M novel polypeptide F: Arg-Lys-Lys-Gly-Gly-Phe-Ser-Phe-Arg-Phe-NH2 (positions 124 to 133 in SEQ ID NO: 23) were compared. A supernatant of the cells was discarded, and the amount of cAMP produced in the cells was measured by cAMP Screen System (Applied Biosystems).

AQ27 [3] = target: T1, AQ27 (Homo sapiens, UniProt Q96P65); assay: Intracellular calcium ion release (FLIPR) in AQ27-expressing CHO cells; parameters: expressed in transfected cells; host or cells: CHO cells; conditions: for peptide concentration at which intracellular calcium ion mobilizing activity was recognized in CHO-AQ27: AQ27-expressing CHO cells; for activity in promoting intracellular calcium ion release in AQ27-expressing CHO cells: peptide 10 μM and 1 μM compared with absence of the sample, Fluo 3-AM
T1 sequence (Q96P65 1-431): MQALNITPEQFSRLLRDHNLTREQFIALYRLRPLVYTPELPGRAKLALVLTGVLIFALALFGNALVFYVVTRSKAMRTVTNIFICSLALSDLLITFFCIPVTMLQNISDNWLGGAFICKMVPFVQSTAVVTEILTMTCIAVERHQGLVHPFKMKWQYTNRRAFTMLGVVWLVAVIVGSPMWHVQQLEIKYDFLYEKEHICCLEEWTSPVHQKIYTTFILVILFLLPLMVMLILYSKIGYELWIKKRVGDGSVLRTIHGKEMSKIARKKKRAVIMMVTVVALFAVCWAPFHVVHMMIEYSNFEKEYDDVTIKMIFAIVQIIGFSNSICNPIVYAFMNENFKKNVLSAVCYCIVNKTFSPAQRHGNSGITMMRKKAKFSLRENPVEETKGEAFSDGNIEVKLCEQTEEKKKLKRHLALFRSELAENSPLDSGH
Description: AQ27-expressing CHO cells established by a method known per se were plated on a 96-well black culture plate (Costar) at a density of 4×10^4 cells/well and cultured overnight. The assay buffer used was a buffer prepared by adding 20 mM HEPES, pH 7.4 (Dojin Kagaku) and 2.5 mM probenecid (Sigma) to a Hanks' balanced salt solution (HBSS). The medium for the cells were removed, and a solution prepared by adding 4 μM Fluo 3-AM (Dojindo) and 0.04% pluronic acid (Molecular Probes) to the assay buffer was added thereto and incubated at 37° C. for 1 hour. The cells were washed with the assay buffer to remove an excess of Fluo 3 and set in FLIPR (Molecular Devices). A sample dissolved in the assay buffer was also set in FLIPR, and the sample was added to the cells by a built-in manipulator, and a change in fluorescence depending on the concentration of intracellular calcium ions generated by irradiation with an excitation light was measured. As a result, the reactions shown in FIGS. 26 and 27 were detected respectively in the presence of novel peptide F: Arg-Lys-Lys-Gly-Gly-Phe-Ser-Phe-Arg-Phe-NH2 (positions 124 to 133 (RKKGGFSFRF—NH2) in SEQ ID NO: 23) and novel polypeptide F: Gly-Gly-Phe-Ser-Phe-Arg-Phe-NH2 (positions 127 to 133 (GGFSFRF—NH2) in SEQ ID NO: 23) in an amount of 10 μM (▴) and 1 μM (□), as compared with the absence of the sample (◯), and the activity of each peptide in promoting intracellular calcium ion release in the AQ27-expressing CHO cells was detected.

AQ27 [4] = target: T1, AQ27; assay: CRE-luciferase reporter gene assay in HEK 293 cells transiently expressing AQ27 receptor; parameters: expressed in transfected cells; host or cells: HEK 293 cells, transient, vector pAKKO-111H, co-transfected with pCRE-Luc; conditions: pCRE-Luc reporter, peptide 10, 1 and 0.1 μM in Example 9, 4 hours
Source text: (§2) The specific stimulating activity of novel polypeptides F synthesized in Example 8 on AQ27 receptor (SEQ ID NO: 31) and human OT7T022 receptor (SEQ ID NO: 35) was detected by using, as an indicator, the amount of a reporter gene product (luciferase) produced by induction of expression of a cAMP response element (CRE) promoter.
The HEK 293 cells were suspended in a growth medium (DMEM [Dulbecco's Modified Eagle Medium] (Gibco BRL) containing 10% fetal bovine serum (Gibco BRL)), and plated at a density of 1×10^5 cells/well on a black 96-well plate (Becton Dickinson Company, Ltd.) coated with collagen. After the cells were cultured overnight at 37° C. in 5% CO2, the cells were transfected in the following manner with a reporter gene-containing plasmid pCRE-Luc (Clontech) and simultaneously with an expression vector plasmid prepared by inserting AQ27 gene (SEQ ID NO: 32) and human OT7T022 gene (SEQ ID NO: 36) by a known method into an animal cell expression vector pAKKO-111H (the same plasmid vector as pAKKO-1.11H described in Biochem. Biophys. Acta, Hinuma, S. et al., 1219, 251-259, 1994) or with the intact pAKKO-111H not containing AQ27 gene.
OPTI-MEM-I (Gibco BRL) and Lipofectamine™ 2000 Reagent (Gibco BRL) were mixed in a ratio of 24:1 to prepare a Lipofectamine dilution. Separately, OPTI-MEM-I, AQ27 expression vector plasmid or the intact vector plasmid (240 ng/μl) and pCRE-Luc (240 ng/μl) were mixed in a ratio of 24:0.9:0.1 to prepare a DNA dilution. The Lipofectamine dilution and the DNA dilution were mixed in equal amounts and left for 20 minutes at room temperature, to form a DNA/Lipofectamine complex, and 25 μl of the complex was added to the plate where the HEK 293 cells were cultured, and the cells were further cultured overnight at 37° C. in 5% CO2.
(§3) The HEK 293 cells thus transfected were washed with an assay medium (DMEM containing 0.1% bovine serum albumin), and then each of novel polypeptides F synthesized in Example 8, diluted with the assay buffer, was added at concentrations of 10, 1 and 0.1 μM respectively to the cells which were then cultured at 37° C. in 5% CO2 for 4 hours. The culture supernatant was discarded, and 50 μl Pikka Gene LT2.0 (Toyo Ink Mfg. Co., Ltd.), that is, a substrate for measurement of luciferase activity, was added thereto, and the fluorescence of luciferase was measured with a plate reader (ARVO sx multilabel counter, Wallac).
First, full-length human novel secretory protein F gene (SEQ ID NO: 24) was introduced in a usual manner into an expression vector […]. […] The AQ27-specific activity was detected by using an indicator the amount of the reporter gene product (luciferase) produced by induction with expression of cAMP response element (CRE) promoter.

AQ27 [5] = target: T1, AQ27; assay: cAMP production-suppressing activity in AQ27-expressing CHO cells; parameters: expressed in transfected cells; host or cells: CHO cells; conditions: 2 μM forskolin; for cAMP production induced by FSK in AQ27-expressing CHO: 30 minutes at 37° C., 10^−7 to 10^−5 M peptide in Example 12
Description: as §1

human OT7T022 receptor = target: T2, human OT7T022 receptor (Homo sapiens, UniProt Q9GZQ6); assay: CRE-luciferase reporter gene assay in HEK 293 cells transiently expressing OT7T022 receptor; conditions: HEK 293 cells transiently expressing human OT7T022 receptor; pCRE-Luc reporter; peptide 10, 1 and 0.1 μM in Example 9
T2 construct: expressed in transfected cells; host or cells: HEK 293 cells, transient, vector pAKKO-111H, co-transfected with pCRE-Luc
T2 sequence (Q9GZQ6 whole entry): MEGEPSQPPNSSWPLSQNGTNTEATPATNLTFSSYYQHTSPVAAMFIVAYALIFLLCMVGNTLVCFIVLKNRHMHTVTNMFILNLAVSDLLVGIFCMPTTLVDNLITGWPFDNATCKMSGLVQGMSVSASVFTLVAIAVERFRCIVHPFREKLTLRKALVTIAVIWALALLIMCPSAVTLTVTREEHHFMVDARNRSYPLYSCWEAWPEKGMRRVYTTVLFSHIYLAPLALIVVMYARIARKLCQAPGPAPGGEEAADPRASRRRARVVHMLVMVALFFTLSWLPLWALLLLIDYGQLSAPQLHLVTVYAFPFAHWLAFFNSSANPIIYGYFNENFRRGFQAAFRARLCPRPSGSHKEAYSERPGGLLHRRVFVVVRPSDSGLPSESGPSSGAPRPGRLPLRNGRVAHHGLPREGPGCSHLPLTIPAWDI
Source text: as §2
The HEK 293 cells were suspended in a growth medium (DMEM [Dulbecco's Modified Eagle Medium] (Gibco BRL) containing 10% fetal bovine serum (Gibco BRL)), and plated at a density of 1×10^5 cells/well on a black 96-well plate (Becton Dickinson Company, Ltd.) coated with collagen. […]
as §3

Row | peptide concentration at which intracellular calcium ion mobilizing activity was recognized in CHO-AQ27 (AQ27 [3]) | activity of luciferase stimulated by adding forskolin (FSK), AQ27 receptor (AQ27 [4]) | cAMP production induced by FSK in AQ27-expressing CHO (AQ27 [5]) | activity in promoting intracellular calcium ion release in AQ27-expressing CHO cells (AQ27 [3]) | peptide concentration at which FSK-induced cAMP production was suppressed in AQ27-expressing CHO (AQ27 [5]; AQ27-expressing CHO cells) | activity of luciferase stimulated by adding FSK, human OT7T022 receptor (human OT7T022 receptor) | Substance | intracellular calcium ion mobilizing activity in mock CHO cells (mock CHO cells [1]) | cAMP production-suppressing activity in mock CHO cells (mock CHO cells [2])
1 | at least 10^−8 M | increase in luciferase activity | suppressed |  |  |  | Pyr-Asp-Glu-Gly-Ser-Glu-Ala-Thr-Gly-Phe-Leu-Pro-Ala-Ala-Gly-Glu-Lys-Thr-Ser-Gly-Pro-Leu -Gly-Asn-Leu-Ala-Glu-Glu-Leu-Asn-Gly-Tyr-Ser-Arg-Lys-Lys-Gly-Gly-Phe-Ser-Phe Arg-Phe-NH2 (QDEGSEATGFLPAAGEKTSGPLGNLAEELNGYSRKKGGFSFRF; N-terminal pyroglutamate, C-terminal amide; Human) [Pyr1-F43-NH2] | not recognized | not recognized
2 |  |  |  | detected |  |  | Gly-Gly-Phe-Ser-Phe-Arg-Phe-NH2 (GGFSFRF-NH2) |  | 
3 |  | increase in luciferase activity |  |  |  |  | Thr-Ser-Gly-Pro-Leu-Gly-Asn-Leu-Ala-Glu-Glu-Leu-Asn-Gly-Tyr-Ser-Arg-Lys-Lys-Gly-Gly-Phe-Ser-Phe Arg-Phe-NH2 (TSGPLGNLAEELNGYSRKKGGFSFRF-NH2) [T1-F26-NH2] |  | 

Continued, substance first:

Row | Substance | peptide concentration at which intracellular calcium ion mobilizing activity was recognized in CHO-AQ27 (AQ27 [3]) | activity of luciferase stimulated by adding forskolin (FSK), AQ27 receptor (AQ27 [4]) | cAMP production induced by FSK in AQ27-expressing CHO (AQ27 [5]) | activity in promoting intracellular calcium ion release in AQ27-expressing CHO cells (AQ27 [3]) | peptide concentration at which FSK-induced cAMP production was suppressed in AQ27-expressing CHO (AQ27 [5]; AQ27-expressing CHO cells) | activity of luciferase stimulated by adding FSK, human OT7T022 receptor (human OT7T022 receptor) | intracellular calcium ion mobilizing activity in mock CHO cells (mock CHO cells [1]) | cAMP production-suppressing activity in mock CHO cells (mock CHO cells [2])
4 | Ala-Ser-Gln-Pro-Gln-Ala-Leu-Leu-Val-Ile-Ala-Arg-Gly-Leu-Gln-Thr-Ser-Gly-Arg-Glu-His-Ala-Gly-Cys-Arg-Phe-NH2 (ASQPQALLVIARGLQTSGREHAGCRF-NH2) [A1-F28-NH2] | at least 10^−6 M | increase in luciferase activity |  |  | at least 10 M |  | not recognized | not recognized
5 | Arg-Lys-Lys-Gly-Gly-Phe-Ser-Phe-Arg-Phe-NH2 (RKKGGFSFRF-NH2) |  | increasing the luciferase activity | suppressed | detected |  | suppressing the luciferase activity |  | 
